Results reported in paper doi:10.1101/2023.03.22.533679, “Selective inhibitors of the Aurora A-TPX2 protein-protein interaction exhibit in vivo efficacy as targeted anti-mitotic agents” (bioRxiv, 2023).
Where no end group is shown, it is not given here.

T1: Aurora A kinase domain (residues 126-390) with hexa-His tag (human, UniProt O14965 126-390)
T1 construct: Aurora A, human, kinase domain only, residues 126-390, Uniprot O14965; construct for biophysical assays; No removal of the His tag is described; The crystallography constructs differ (Thr287Ala or Cys290Ala; or residues 126-391 without His tag); also called Aurora A protein; pBAT4-AurAS.003 construct; source: E. coli BL21(DE3) with pUBS520, co-expressed with lambda phosphatase, purified (HisTrap, …)
T1 sequence (looked up): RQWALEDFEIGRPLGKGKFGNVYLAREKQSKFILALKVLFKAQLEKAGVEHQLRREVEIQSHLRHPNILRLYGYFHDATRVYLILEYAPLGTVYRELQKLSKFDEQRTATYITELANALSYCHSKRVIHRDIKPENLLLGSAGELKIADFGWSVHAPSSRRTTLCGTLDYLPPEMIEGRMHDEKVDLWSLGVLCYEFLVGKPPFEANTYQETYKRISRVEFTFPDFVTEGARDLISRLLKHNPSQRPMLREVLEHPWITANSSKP

B1: TPX2 peptide fragment (amino acids 7-22) (peptide, UniProt Q9ULW0 7-22, looked up)
peptide: SYSYDAPSDFINFSSL
notes: TPX2, amino acids 7-22; Uniprot Q9ULW0 is printed for the longer TPX2 peptide of the methods
B2: TPX2 peptide (residues 7-43) with C-terminal GGGCSS tail, labelled with Alexa Fluor 488 (peptide)
peptide: SYSYDAPSDFINFSSLDDEGDTQNIDSWFEEKANLENGGGC(Alexa Fluor 488 C5 maleimide)SS
notes: TPX2 (Targeting protein for Xenopus kinesin-like protein 2), residues 7-43, Uniprot Q9ULW0; C-terminal tail that carries the cysteine for labelling; also called labelled TPX2 peptide; labelled TPX2; source: E. coli, purified (Ni Sepharose, labelled, cleaved with HRV 3C protease, second Ni Sepharose, reversed phase C18); not shown: His-tag, N-terminal, cleaved; GB1, N-terminal, cleaved

What was measured:
[1] = molecular target: T1, Aurora A kinase domain (residues …); test: ligand-based NMR competition; ligand-based NMR of fragment hits with Aurora A; displacement of the fragments by the TPX2 peptide fragment 7-22; conditions: both partners purified
[2] = molecular target: T1, Aurora A kinase domain (residues …); test: fluorescence polarisation; direct titration of up to 200 nM Aurora A to 11 nM labelled TPX2 peptide; 100 mM HEPES pH 7.4, 100 mM magnesium acetate, 50 mM NaCl, 0.02% P20, 1 mM DTT, 1 mM ATP, 10% (v/v) DMSO; conditions: both partners purified

| Binder | binding result [1] | Kd [2] [nM] |
| --- | --- | --- |
| B1 | binds |  |
| B2 |  | 1.2 |
